To fix the notation:
B1: Leukocyte immunoglobulin-like receptor subfamily B member 2 (Homo sapiens), Q8N423 (parent)
chain: MTPIVTVLICLGLSLGPRTRVQTGTIPKPTLWAEPDSVITQGSPVTLSCQGSLEAQEYRLYREKKSASWITRIRPELVKNGQFHIPSITWEHTGRYGCQYYSRARWSELSDPLVLVMTGAYPKPTLSAQPSPVVTSGGRVTLQCESQVAFGGFILCKEGEDEHPQCLNSQPHARGSSRAIFSVGPVSPNRRWSHRCYGYDLNSPYVWSSPSDLLELLVPGVSKKPSLSVQPGPVMAPGESLTLQCVSDVGYDRFVLYKEGERDLRQLPGRQPQAGLSQANFTLGPVSRSYGGQYRCYGAHNLSSECSAPSDPLDILITGQIRGTPFISVQPGPTVASGENVTLLCQSWRQFHTFLLTKAGAADAPLRLRSIHEYPKYQAEFPMSPVTSAHAGTYRCYGSLNSDPYLLSHPSEPLELVVSGPSMGSSPPPTGPISTPGPEDQPLTPTGSDPQSGLGRHLGVVIGILVAVVLLLLLLLLLFLILRHRRQGKHWTSTQRKADFQHPAGAVGPEPTDRGLQWRSSPAADAQEENLYAAVKDTQPEDGVEMDTRAAASEAPQDVTYAQLHSLTLRRKATEPPPSQEREPPAEPSIYATLAIH
B2: Leukocyte immunoglobulin-like receptor subfamily B member 2 (Homo sapiens), Q8N423 (parent)
chain: B1 chain
partner: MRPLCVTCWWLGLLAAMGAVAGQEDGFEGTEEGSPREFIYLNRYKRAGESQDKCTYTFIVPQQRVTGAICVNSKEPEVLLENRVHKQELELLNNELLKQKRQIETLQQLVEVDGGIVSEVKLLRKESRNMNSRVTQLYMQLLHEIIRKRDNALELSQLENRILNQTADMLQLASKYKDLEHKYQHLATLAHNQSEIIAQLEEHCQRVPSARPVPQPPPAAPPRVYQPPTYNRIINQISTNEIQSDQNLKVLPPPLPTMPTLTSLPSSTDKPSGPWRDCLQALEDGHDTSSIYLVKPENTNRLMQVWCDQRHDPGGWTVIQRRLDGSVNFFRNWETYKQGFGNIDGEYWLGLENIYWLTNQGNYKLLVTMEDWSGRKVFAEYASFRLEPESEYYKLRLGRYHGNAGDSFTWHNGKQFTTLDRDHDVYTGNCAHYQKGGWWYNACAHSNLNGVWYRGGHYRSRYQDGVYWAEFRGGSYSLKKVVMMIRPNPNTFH

The first assay covers variants of B1. The note with it: with angl5_human ANGPTL5, Q86XS5.
Sequence of angl5_human ANGPTL5, Q86XS5 (Q86XS5 whole entry): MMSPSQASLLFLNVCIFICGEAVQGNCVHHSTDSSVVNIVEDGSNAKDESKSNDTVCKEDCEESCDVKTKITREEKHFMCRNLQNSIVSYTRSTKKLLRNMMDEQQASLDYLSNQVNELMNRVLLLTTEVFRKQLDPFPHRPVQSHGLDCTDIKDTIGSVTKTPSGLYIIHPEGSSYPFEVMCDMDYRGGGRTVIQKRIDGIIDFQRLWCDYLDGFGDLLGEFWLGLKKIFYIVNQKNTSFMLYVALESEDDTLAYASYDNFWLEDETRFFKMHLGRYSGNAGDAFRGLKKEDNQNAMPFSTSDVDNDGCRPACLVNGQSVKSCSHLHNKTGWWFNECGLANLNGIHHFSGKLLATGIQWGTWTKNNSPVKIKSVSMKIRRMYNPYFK
For the variant Y96A;G392D, the “effect of a mutation on the interaction” value is recorded as “disrupting interaction strength”.
Same read-out and setting: the same measure for G392D: “decreasing interaction strength”; for T93A: “decreasing interaction strength”.
On the same count and under the same terms, the same measure for T393E: “decreasing interaction strength”.
Same read-out and setting: the same measure for R59A;Y61A;W90A;D200A;N202A;Y205A: “decreasing interaction strength”; for R95E: “decreasing interaction strength”.
Turning to Y96A, the “effect of a mutation on the interaction” value is on record as “decreasing interaction strength”.
The same measure, in the same setting: the same measure for Y100G: “decreasing interaction strength”.
For the variant Y394A, the “effect of a mutation on the interaction” value is listed as “decreasing interaction strength”.
For Y96A;T393E, the “effect of a mutation on the interaction” value was “disrupting interaction strength”.
On the same count and under the same terms, the same measure for W90A;D200A;N202A;Y205A: “decreasing interaction strength”.
Still for that read-out and setting: the same measure for G94D: “disrupting interaction strength”; for G97R: “with no effect”; for H92S: “decreasing interaction strength”.
Consider R59A;Y61A, for which the “effect of a mutation on the interaction” value is on record as “with no effect”.
The same measure, in the same setting: the same measure for Y96A;Y394A: “disrupting interaction strength”; for Q99R: “decreasing interaction strength”.

In the next assay the parent is B2. The following applies: with angl2_human ANGPTL2, Q9UKU9.
Turning to G94D, the “effect of a mutation on the interaction” value was “decreasing interaction strength”.
On the same count and under the same terms, the same measure for Y96A;Y394A: “disrupting interaction strength”; for R59A;Y61A: “decreasing interaction strength”.
Still for that read-out and setting: the value for R95E was “decreasing interaction strength”; that for Y96A was “decreasing interaction strength”; that for R59A;Y61A;W90A;D200A;N202A;Y205A was “decreasing interaction strength”.
The same measure, in the same setting: the same measure for Y100G: “decreasing interaction strength”; for G392D: “with no effect”.
Consider T393E, for which the “effect of a mutation on the interaction” value is recorded as “with no effect”.
Same read-out and setting: the same measure for Y96A;T393E: “decreasing interaction strength”; for G97R: “with no effect”.
On the same count and under the same terms, the value for H92S was “with no effect”; that for T93A was “increasing interaction strength”; that for Y96A;G392D was “disrupting interaction strength”.
In the case of W90A;D200A;N202A;Y205A, the “effect of a mutation on the interaction” value is recorded as “with no effect”.
In the case of Y394A, the “effect of a mutation on the interaction” value is listed as “decreasing interaction strength”.
Same read-out and setting: the same measure for H92S;T93A;G94D;R95E;Y96A;G97R;Q99R;Y100G: “decreasing interaction strength”.
Same read-out and setting: the same measure for Q99R: “with no effect”.
